Reference: patent publication US20090022663A1

Target: 161P2F10B variant 1 (human 161P2F10B), on the cell surface (human) (UniProt O14638)
Assay: FACS titration on KU-812 cells, one site binding fit

Kd: 4.73 nM
B1: H16-1.92.1.1 (antibody, part only; not given: light chain, V domains shown, part only)
VH: EVLLVESGPGLVKPSETLSLTCTVSGGSISSSSYFWGWIRQPPGKGLEWIGSIYYSGNTYYNPSLKSRVTISVDTSKNRFSLKLSSVTAADTAVYCCASATTVTTAFDIWGQGTMVTVSSASTKGPSVFPLAPSS
